Source: paper PMC5809500
Values belong to the substance of their own block, whether it stands above or below them.

Experiments:
[1] = target: anti-NIP hIgG1-YTE (M252Y/S254T/T256E) (human | mouse); test: MST; 20 nM NT-647-labelled hIgG1 variant constant, hFcRn titrated (60,000–0.3 nM); 100 mM phosphate buffer, 150 mM NaCl, 0.01% Tween 20, pH 5.5; 25 °C; Monolith NT.115
[2] = target: WT anti-NIP hIgG1 (chimeric hIgG1 with mouse lambda light chain, hIgG1 constant HC and a VH specific for NIP) (human | mouse); test: as above
[3] = target: anti-NIP hIgG1-KF (H433K/N434F) (human | mouse); test: as above
[4] = target: anti-NIP hIgG1-YTE/KF (M252Y/S254T/T256E/H433K/N434F) (human | mouse); test: as above
[5] = target: anti-NIP hIgG1-YTE (M252Y/S254T/T256E) (human | mouse); test: MST; 20 nM NT-647-labelled hIgG1 variant constant, hFcRn titrated (60,000–0.3 nM); PBS, 0.01% Tween 20, pH 7.4; 25 °C; Monolith NT.115
[6] = target: WT anti-NIP hIgG1 (chimeric hIgG1 with mouse lambda light chain, hIgG1 constant HC and a VH specific for NIP) (human | mouse); test: as above
[7] = target: anti-NIP hIgG1-KF (H433K/N434F) (human | mouse); test: as above
[8] = target: anti-NIP hIgG1-LS (M428L/N434S) (human | mouse); test: as above
[9] = target: hFcRn coupled to the affinity column (analytical hFcRn affinity chromatography) (UniProt P55899); test: analytical hFcRn affinity chromatography; hFcRn coupled to the column; 50 µl hIgG1 variant (1 mg/ml) injected, eluted by a linear pH gradient from pH 6.0 to 8.8 within 110 min (20 mM MES, 140 mM NaCl / 20 mM Tris/HCl, 140 NaCl)
[10] = target: Truncated monomeric His-tagged hFcRn (three extracellular domains of the hFcRn HC with human β2-microglobulin) (human) (UniProt P55899)

Kd [1]: 166 nM | Kd [2]: 964 nM | Kd [3]: 53.4 nM | Kd [4]: 9.3 nM | Kd [5]: > 20000 nM | Kd [6]: > 60000 nM | Kd [7]: 3300 nM | Kd [8]: 7000 nM
Substance: Truncated monomeric His-tagged hFcRn (three extracellular domains of the hFcRn HC with human β2-microglobulin) (from UniProt P55899 24-297; P61769 21-119) (receptor)

pH of the elution peak from the hFcRn column [9]: 7 pH
Substance: WT anti-NIP hIgG1 (chimeric hIgG1 with mouse lambda light chain, hIgG1 constant HC and a VH specific for NIP) (antibody)

reduction of recycling of WT anti-hexon hIgG1 (500 nM) by HMEC1-hFcRn cells (HERA, pH 7.4) with 2 µM YTE/KF; the pair blocked is WT hIgG1 and hFcRn [10]: 50%
Substance: anti-NIP hIgG1-YTE/KF (M252Y/S254T/T256E/H433K/N434F) (antibody)
